Residue numbers refer to the chain shown, from its start. Names may count otherwise. One block for each binder: values may come before it. Where no end group is shown, it is not given here.
Key:
FBF-2 (164-575) [1] = target: T1, FBF-2 (164-575) (C. elegans, UniProt Q09312 164-575); assay: NMR, [15N,1H]-HSQC free against bound
T1 sequence (looked up): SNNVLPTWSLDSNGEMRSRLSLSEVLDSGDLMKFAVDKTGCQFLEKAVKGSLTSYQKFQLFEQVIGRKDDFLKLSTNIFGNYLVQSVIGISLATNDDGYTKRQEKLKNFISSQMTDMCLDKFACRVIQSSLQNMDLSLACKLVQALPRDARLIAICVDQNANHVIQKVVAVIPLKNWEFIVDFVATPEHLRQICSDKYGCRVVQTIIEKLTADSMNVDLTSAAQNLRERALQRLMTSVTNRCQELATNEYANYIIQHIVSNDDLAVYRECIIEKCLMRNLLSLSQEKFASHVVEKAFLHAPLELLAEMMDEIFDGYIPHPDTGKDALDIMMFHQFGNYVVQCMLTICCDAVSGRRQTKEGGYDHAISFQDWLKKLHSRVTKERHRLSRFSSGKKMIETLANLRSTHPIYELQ

[2] = target: fluorescently labeled wild-type CPB-1(19-80) (C. elegans) (UniProt Q03571); assay: fluorescence polarisation
FBF-1 (164-566) [3] = target: T2, FBF-1 (164-566) (C. elegans, UniProt Q9N5M6 164-566); assay: cross-linking
T2 sequence (looked up): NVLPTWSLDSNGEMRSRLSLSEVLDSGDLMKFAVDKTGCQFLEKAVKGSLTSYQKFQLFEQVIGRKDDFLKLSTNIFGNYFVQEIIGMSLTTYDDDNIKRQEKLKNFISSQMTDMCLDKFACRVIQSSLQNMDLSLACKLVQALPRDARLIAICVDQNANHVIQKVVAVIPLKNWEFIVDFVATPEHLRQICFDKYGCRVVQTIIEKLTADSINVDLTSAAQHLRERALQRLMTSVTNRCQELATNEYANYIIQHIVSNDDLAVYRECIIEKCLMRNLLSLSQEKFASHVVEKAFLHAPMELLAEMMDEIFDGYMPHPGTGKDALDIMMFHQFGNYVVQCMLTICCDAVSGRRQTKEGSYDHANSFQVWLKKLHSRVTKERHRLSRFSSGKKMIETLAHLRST

FBF-2 (164-566) [4] = target: T3, FBF-2 (164-566) (C. elegans, UniProt Q09312 164-566); assay: cross-linking
T3 sequence (looked up): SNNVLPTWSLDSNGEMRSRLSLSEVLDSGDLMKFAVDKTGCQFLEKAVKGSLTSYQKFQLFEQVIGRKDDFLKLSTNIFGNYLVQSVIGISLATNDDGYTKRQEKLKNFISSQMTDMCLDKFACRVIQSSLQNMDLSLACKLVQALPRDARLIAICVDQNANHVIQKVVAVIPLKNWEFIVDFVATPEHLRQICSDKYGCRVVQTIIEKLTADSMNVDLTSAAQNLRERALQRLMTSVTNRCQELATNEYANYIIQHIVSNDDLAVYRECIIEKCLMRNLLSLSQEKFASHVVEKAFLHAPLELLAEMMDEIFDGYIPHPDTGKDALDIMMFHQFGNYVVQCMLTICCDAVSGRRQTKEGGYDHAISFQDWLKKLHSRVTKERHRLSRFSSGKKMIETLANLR

FBF-2 (164-575) [5] = target: T1, FBF-2 (164-575); assay: fluorescence polarisation
FBF-1 (164-566) [6] = target: T2, FBF-1 (164-566); assay: pull-down
FBF-2 (164-566) [7] = target: T3, FBF-2 (164-566); assay: pull-down
[8] = target: T4, FBF-2 (164-575);MBP-CPB-1 (1-80) (Caenorhabditis elegans;Caenorhabditis …, UniProt Q09312;Q03571 164-575;1-80, |); assay: EMSA
T4 sequence 1: T1 sequence (looked up)
T4 sequence 2: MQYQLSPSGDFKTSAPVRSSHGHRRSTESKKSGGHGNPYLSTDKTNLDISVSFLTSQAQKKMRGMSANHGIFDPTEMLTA

FBF-2 (164-575) [9] = target: T5, FBF-2 (164-575) (Caenorhabditis elegans, UniProt Q09312 164-575); assay: EMSA
T5 sequence: T1 sequence (looked up)

B1: 15N-labeled CPB-1(32-80) (domain or fragment, C. elegans, UniProt Q03571 32-80, looked up)
chain: SGGHGNPYLSTDKTNLDISVSFLTSQAQKKMRGMSANHGIFDPTEMLTA
modifications: also: 15N labeled
binding result (FBF-2 (164-575) [1]): binds

B2: FBF-2 (164-575) (domain or fragment)
chain: T1 sequence (looked up)
Kd [2]: 49 nM

B5: FBF-2 (164-575) I480A (domain or fragment)
chain: T1 sequence (looked up) with I317A
Kd [2]: 778 nM

B6: CPB-1(1-80) (domain or fragment, C. elegans, UniProt Q03571 1-80, looked up)
chain: T4 sequence 2
stoichiometry N (FBF-1 (164-566) [3]): 1
stoichiometry N (FBF-2 (164-566) [4]): 1

B7: CPB-1(19-80) (domain or fragment, C. elegans, UniProt Q03571 19-80, looked up)
chain: SSHGHRRSTESKKSGGHGNPYLSTDKTNLDISVSFLTSQAQKKMRGMSANHGIFDPTEMLTA
IC50 (FBF-2 (164-575) [5]): 1150 ± 50 nM

B9: CPB-1(19-80) L47A (domain or fragment, C. elegans, UniProt Q03571 19-80, looked up)
chain: B7 chain with L29A
binding result (FBF-2 (164-575) [5]): binds

B11: CPB-1(19-80) L40A (domain or fragment, C. elegans, UniProt Q03571 19-80, looked up)
chain: B7 chain with L22A
binding result (FBF-2 (164-575) [5]): binds

B13: CPB-1(32-60) (domain or fragment, C. elegans, UniProt Q03571 32-60, looked up)
chain: SGGHGNPYLSTDKTNLDISVSFLTSQAQK
binding result (FBF-1 (164-566) [6]): binds
binding result (FBF-2 (164-566) [7]): binds

B14: cyb-1 RNA (ssRNA)
RNA: CGAAAUAAACAUUUUGUACCAUUCAGUC
Kd [8]: 5.8 nM
Kd (FBF-2 (164-575) [9]): 24 nM

The next lines start with the values.

fold increase in Kd relative to wild-type FBF [2]: > 60 fold
B3: FBF-2 (164-575) Y479A (domain or fragment)
chain: T1 sequence (looked up) with Y316A

Kd [2]: 1260 nM
B4: FBF-2 (164-575) T485A (domain or fragment)
chain: T1 sequence (looked up) with T322A

binding result (FBF-2 (164-575) [5]): binds
B8: CPB-1(19-80) I49A (domain or fragment, C. elegans, UniProt Q03571 19-80, looked up)
chain: B7 chain with I31A

binding result (FBF-2 (164-575) [5]): binds
B10: CPB-1(19-80) K44A (domain or fragment, C. elegans, UniProt Q03571 19-80, looked up)
chain: B7 chain with K26A

binding result (FBF-2 (164-575) [5]): binds
B12: CPB-1(19-80) T45A (domain or fragment, C. elegans, UniProt Q03571 19-80, looked up)
chain: B7 chain with T27A
